Bridge positions count the residues as written; N and C are the ends. Square brackets hold non-standard residues; d marks the D form. $4rn6 = Alpha-Me R-azide 1,4 triazole (6 carbon), forms a triazole cross-link with a second residue in the same molecule; $4a5 = Alpha-Me alkyne 1,4 triazole (5 carbon), forms a triazole cross-link with a second residue in the same molecule; $5rn6 = Alpha-Me R-azide 1,5 triazole (6 carbon); $5a5 = Alpha-Me alkyne 1,5 triazole (5 carbon); Cba = N[C@@H](CC1CCC1)C(=O)O
T1: MDMX (In-house, 40 kD) (UniProt O15151 1-134, limits assumed)
T1 construct: Construct used in the FP assays is described only as in-house, 40 kD; also called MDM4
T1 sequence (looked up): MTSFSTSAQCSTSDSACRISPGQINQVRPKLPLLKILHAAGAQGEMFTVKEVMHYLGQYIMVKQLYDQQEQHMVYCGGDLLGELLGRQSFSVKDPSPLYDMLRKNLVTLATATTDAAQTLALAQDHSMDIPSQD


Assays:
MDM2 (In-house, 41 kD) [1] = molecular target: T2, MDM2 (In-house, 41 kD) (UniProt Q00987 1-138, limits assumed); assay: competitive fluorescence polarization vs FAM-labeled linear peptide; grade of Ki (MDM2); scale in paragraph 664: ++++ = <=10 nM
T2 construct: Construct used in the FP assays is described only as in-house, 41 kD; also called HDM2
T2 sequence (Q00987 1-138 limits assumed): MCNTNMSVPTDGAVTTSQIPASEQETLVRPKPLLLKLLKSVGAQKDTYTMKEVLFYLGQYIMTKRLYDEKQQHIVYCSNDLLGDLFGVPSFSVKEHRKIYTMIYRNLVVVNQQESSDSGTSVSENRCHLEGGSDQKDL

MDMX (In-house, 40 kD) [2] = molecular target: T1, MDMX (In-house, 40 kD); assay: competitive fluorescence polarization vs FAM-labeled linear peptide; grade of Ki (MDMX); scale in paragraph 664: ++++ = <=10 nM
Experimental: (§1) The assay is performed according to the following general protocol: 1. Dilute MDMX (In-house, 40 kD) into FP buffer (High salt buffer-200 mM Nacl, 5 mM CHAPS, pH 7.5.) to make 300 nM (2×) working stock solution. 2. Add 20 µl of 300 nM (2×) of protein stock solution into each well of 96-well black HE microplate (Molecular Devices) 3. […] Then, dilute from 100 µM to 10 µM with water (dilution 1:10) and then dilute with FP buffer from 10 µM to 40 nM (dilution 1:250). This is the working solution which will be a 10 nM concentration in well (dilution 1:4). […] 4. Make unlabeled peptide dose plate with FP buffer starting with 5 µM (final) of peptide and making 5 fold serial dilutions for 6 points using following dilution scheme. 5. Dilute 10 mM (in 100% DMSO) with DMSO to 5 mM (dilution 1:2). Then, dilute from 5 mM to 500 µM with H_2O (dilution 1:10) and then dilute with FP buffer from 500 µM to 20 µM (dilution 1:25). Making 5 fold serial dilutions from 20 µM (4×) for 6 points. 6. Transfer 10 µl of serial diluted unlabeled peptides to each well which is filled with 20 µl of 300 nM of protein. 7.

MDM2 (In-house, 41 kD) [3] = molecular target: T2, MDM2 (In-house, 41 kD); assay: competitive fluorescence polarization vs FAM-labeled linear peptide; grade of IC50 (MDM2); scale in paragraph 664: +++ = >10 and <=100 nM
MDMX (In-house, 40 kD) [4] = molecular target: T1, MDMX (In-house, 40 kD); assay: competitive fluorescence polarization vs FAM-labeled linear peptide; grade of IC50 (MDMX); scale in paragraph 664: +++ = >10 and <=100 nM
Experimental: as §1

MDM2 (In-house, 41 kD) [5] = molecular target: T2, MDM2 (In-house, 41 kD); assay: competitive fluorescence polarization vs FAM-labeled linear peptide; grade of IC50 (MDM2); scale in paragraph 664: ++++ = <=10 nM
MDMX (In-house, 40 kD) [6] = molecular target: T1, MDMX (In-house, 40 kD); assay: competitive fluorescence polarization vs FAM-labeled linear peptide; grade of IC50 (MDMX); scale in paragraph 664: ++++ = <=10 nM
Experimental: as §1

MDM2 (In-house, 41 kD) [7] = molecular target: T2, MDM2 (In-house, 41 kD); assay: competitive fluorescence polarization vs FAM-labeled linear peptide; grade of Ki (MDM2); scale in paragraph 664: ++ = >100 and <=1000 nM
MDMX (In-house, 40 kD) [8] = molecular target: T1, MDMX (In-house, 40 kD); assay: competitive fluorescence polarization vs FAM-labeled linear peptide; grade of Ki (MDMX); scale in paragraph 664: +++ = >10 and <=100 nM
Experimental: as §1

MDM2 (In-house, 41 kD) [9] = molecular target: T2, MDM2 (In-house, 41 kD); assay: competitive fluorescence polarization, Ki (MDM2)
MDMX (In-house, 40 kD) [10] = molecular target: T1, MDMX (In-house, 40 kD); assay: competitive fluorescence polarization, Ki (MDMX)
Experimental: as §1

Binder | Ki (MDM2 (In-house, 41 kD) [1]) [nM] | Ki (MDMX (In-house, 40 kD) [2]) [nM] | IC50 (MDM2 (In-house, 41 kD) [3]) [nM] | IC50 (MDMX (In-house, 40 kD) [4]) [nM] | Ki (MDM2 (In-house, 41 kD) [9]) [nM] | Ki (MDMX (In-house, 40 kD) [10]) [nM] | other results
LTFCAYWAQLCAAXA (N-terminal acetyl (Ac); position 4 = %cs7 (alpha-methyl-D-cysteine) connected by an i to i+7 seven-methylene bis-thioether crosslinker to position 11 = %c7 (alpha-methyl-L-cysteine); position 14 = Nle (norleucine); C-terminal amide (NH2), Thioether-crosslinked macrocycle of Formula II; also called Ac-LTF%cs7AYWAQL%c7AANleA-NH2) [SP-916] | ≤ 10 | ≤ 10 | 10 to 100 | 10 to 100 |  |  | 
LTFXAYWAQLXAAXA (N-terminal acetyl (Ac); position 4 = $4rn6 (alpha-Me R-azide 1,4 triazole, 6 carbon) crosslinked to position 11 = $4a5 (alpha-Me alkyne 1,4 triazole, 5 carbon); position 14 = Nle (norleucine); C-terminal amide (NH2), Triazole-crosslinked macrocycle of Formula I; also called Ac-LTF$4rn6AYWAQL$4a5AANleA-NH2) [SP-449] | ≤ 10 | ≤ 10 |  |  |  |  | IC50 (MDM2 (In-house, 41 kD) [5]): ≤ 10 nM; IC50 (MDMX (In-house, 40 kD) [6]): ≤ 10 nM
Ac-LTF[$4rn6]AYWAQL[$4a5]AAAAA[dA]-NH2 (triazole 4-11, Triazole-crosslinked macrocycle of Formula I; also called Ac-LTF$4rn6AYWAQL$4a5AAAAAa-NH2) [SP-450] |  |  |  |  |  |  | Ki (MDM2 (In-house, 41 kD) [7]): 100 to 1000 nM
LTFCAYWAQLCAAAAAA (N-terminal acetyl (Ac); position 4 = %cs7 (alpha-methyl-D-cysteine) connected by an i to i+7 seven-methylene bis-thioether crosslinker to position 11 = %c7 (alpha-methyl-L-cysteine); position 17 = D-alanine (a); C-terminal amide (NH2), Thioether-crosslinked macrocycle of Formula II; also called Ac-LTF%cs7AYWAQL%c7AAAAAa-NH2) [SP-917] | ≤ 10 |  | 10 to 100 | 10 to 100 |  |  | Ki (MDMX (In-house, 40 kD) [8]): 10 to 100 nM
Ac-LTA[$5rn6]EYWAQ[Cba][$5a5]SAA-NH2 (triazole 4-11, also called Ac-LTA$5rn6EYWAQCba$5a5SAA-NH2) [SP-459] |  |  |  |  | > 1000 | > 1000 | 
Ac-LTA[$4rn6]EYWAQ[Cba][$4a5]SAA-NH2 (triazole 4-11, also called Ac-LTA$4rn6EYWAQCba$4a5SAA-NH2) [SP-460] |  |  |  |  | > 1000 | > 1000 | 
